What was measured:
Experiment in all cases: co-IP
[1] = biological target: T1, Vps27 truncated at residue 485 (yeast, UniProt P40343 1-485)
T1 sequence: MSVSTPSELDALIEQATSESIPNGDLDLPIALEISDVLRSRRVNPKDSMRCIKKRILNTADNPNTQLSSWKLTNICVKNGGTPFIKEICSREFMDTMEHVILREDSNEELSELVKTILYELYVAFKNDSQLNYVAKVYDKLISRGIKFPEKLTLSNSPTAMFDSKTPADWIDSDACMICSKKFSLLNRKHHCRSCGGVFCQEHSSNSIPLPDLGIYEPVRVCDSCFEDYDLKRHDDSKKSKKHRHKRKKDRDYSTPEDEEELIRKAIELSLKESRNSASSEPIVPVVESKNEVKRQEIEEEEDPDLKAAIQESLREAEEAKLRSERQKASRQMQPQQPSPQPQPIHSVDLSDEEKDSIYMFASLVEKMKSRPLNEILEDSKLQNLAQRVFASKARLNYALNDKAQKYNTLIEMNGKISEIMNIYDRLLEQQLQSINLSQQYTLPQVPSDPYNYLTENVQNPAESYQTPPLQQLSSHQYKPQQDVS

[2] = biological target: T2, Vps27 truncated at residue 617 (yeast, UniProt P40343 1-617)
T2 sequence: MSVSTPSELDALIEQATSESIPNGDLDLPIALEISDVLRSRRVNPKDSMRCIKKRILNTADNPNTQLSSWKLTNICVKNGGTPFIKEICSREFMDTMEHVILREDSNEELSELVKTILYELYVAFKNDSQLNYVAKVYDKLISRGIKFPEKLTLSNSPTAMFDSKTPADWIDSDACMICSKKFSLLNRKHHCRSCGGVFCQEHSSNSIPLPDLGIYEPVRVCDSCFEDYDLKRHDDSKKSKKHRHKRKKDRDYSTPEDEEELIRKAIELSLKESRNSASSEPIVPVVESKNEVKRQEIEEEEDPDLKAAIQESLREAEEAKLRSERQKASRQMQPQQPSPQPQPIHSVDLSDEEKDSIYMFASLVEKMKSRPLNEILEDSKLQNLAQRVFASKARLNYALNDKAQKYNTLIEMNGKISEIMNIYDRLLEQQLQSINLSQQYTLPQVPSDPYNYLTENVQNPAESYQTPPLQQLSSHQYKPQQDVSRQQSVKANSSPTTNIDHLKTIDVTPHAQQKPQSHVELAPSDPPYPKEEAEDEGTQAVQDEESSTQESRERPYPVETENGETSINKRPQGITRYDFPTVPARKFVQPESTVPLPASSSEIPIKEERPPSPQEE

[3] = biological target: T3, Vps27 truncated at residue 579 (yeast, UniProt P40343 1-579)
T3 sequence: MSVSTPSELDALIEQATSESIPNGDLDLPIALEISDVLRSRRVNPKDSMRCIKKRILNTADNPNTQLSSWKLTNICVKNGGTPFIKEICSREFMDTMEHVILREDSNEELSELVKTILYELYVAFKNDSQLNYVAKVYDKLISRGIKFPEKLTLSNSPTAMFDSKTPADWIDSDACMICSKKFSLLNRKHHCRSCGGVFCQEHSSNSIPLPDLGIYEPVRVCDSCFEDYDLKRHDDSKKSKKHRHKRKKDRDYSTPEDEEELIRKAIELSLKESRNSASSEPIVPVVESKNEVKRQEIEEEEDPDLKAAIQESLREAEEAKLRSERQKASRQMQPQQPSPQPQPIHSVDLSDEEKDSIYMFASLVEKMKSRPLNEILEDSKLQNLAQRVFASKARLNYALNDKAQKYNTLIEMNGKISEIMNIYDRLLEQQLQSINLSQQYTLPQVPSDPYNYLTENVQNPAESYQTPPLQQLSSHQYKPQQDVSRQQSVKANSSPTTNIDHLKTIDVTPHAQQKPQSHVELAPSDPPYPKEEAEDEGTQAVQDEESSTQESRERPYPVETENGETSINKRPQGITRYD

[4] = biological target: T4, Vps27 truncated at residue 524 (yeast, UniProt P40343 1-524)
T4 sequence: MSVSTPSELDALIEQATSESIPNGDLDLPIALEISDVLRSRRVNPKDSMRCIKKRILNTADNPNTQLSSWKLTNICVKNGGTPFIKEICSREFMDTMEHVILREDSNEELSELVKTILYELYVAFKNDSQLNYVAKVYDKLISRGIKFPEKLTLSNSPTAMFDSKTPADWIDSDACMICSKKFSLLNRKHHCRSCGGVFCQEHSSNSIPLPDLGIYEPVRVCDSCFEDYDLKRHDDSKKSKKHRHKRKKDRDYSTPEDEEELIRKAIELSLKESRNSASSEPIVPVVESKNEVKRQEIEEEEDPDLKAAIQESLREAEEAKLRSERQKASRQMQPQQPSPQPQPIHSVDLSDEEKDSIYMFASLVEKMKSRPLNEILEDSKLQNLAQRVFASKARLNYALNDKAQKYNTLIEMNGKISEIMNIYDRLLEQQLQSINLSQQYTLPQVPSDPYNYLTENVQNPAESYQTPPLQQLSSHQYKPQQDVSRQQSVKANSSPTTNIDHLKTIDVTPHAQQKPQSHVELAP

[5] = biological target: T5, Vps27 (full-length, wild type) (yeast, UniProt P40343 1-622)
T5 sequence: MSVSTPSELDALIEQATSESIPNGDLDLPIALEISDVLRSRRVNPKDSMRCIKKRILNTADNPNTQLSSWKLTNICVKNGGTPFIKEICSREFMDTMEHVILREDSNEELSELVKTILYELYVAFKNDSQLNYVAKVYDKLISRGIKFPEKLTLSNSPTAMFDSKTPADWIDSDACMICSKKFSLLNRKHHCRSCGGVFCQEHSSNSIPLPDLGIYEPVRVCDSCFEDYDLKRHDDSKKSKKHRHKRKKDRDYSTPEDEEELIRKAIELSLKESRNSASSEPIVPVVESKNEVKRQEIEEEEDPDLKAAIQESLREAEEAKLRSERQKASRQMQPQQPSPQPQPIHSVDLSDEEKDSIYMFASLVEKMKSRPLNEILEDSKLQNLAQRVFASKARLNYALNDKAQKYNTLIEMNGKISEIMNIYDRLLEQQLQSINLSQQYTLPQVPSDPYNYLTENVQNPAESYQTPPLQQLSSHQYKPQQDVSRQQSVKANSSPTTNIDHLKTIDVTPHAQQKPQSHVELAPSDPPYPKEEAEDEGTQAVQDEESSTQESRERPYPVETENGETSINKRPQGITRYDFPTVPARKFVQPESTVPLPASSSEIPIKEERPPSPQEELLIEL

Measured: percent of Vps23 co-immunoprecipitated

B1: Vps23-HA (natural protein)
chain: MSANGKISVPEAVVNWLFKVIQPIYNDGRTTFHDSLALLDNFHSLRPRTRVFTHSDGTPQLLLSIYGTISTGEDGSSPHSIPVIMWVPSMYPVKPPFISINLENFDMNTISSSLPIQEYIDSNGWIALPILHCWDPAAMNLIMVVQELMSLLHEPPQDQAPSLPPKPNTQLQQEQNTPPLPPKPKSPHLKPPLPPPPPPQPASNALDLMDMDNTDISPTNHHEMLQNLQTVVNELYREDVDYVADKILTRQTVMQESIARFHEIIAIDKNHLRAVEQAIEQTMHSLNAQIDVLTANRAKVQQFSSTSHVDDEDVNSIAVAKTDGLNQLYNLVAQDYALTDTIECLSRMLHRGTIPLDTFVKQGRELARQQFLVRWHIQRITSPLS
~10%: all assays above
